Results: US5602102A, “Dipeptidyl peptidase-I inhibitors and uses thereof” (Board of Regents, The Univ. of TX System, priority 1992, dated 1997)
Each block holds one compound with its values, some of them ahead of it. Where a SMILES comes first, the peptide text is derived from it. The star is where a group is joined. Cbz = O=C(OCc1ccccc1)*; CHN2 = [N-]=[N+]=C*

Experiments:
NK cells (Yac-1 targets) = assay: NK function of spleen cells, specific lysis of Yac-1; assay type: in vivo, murine; conditions: spleen cells of saline injected mice treated with 250 μM Leu-Leu-Ome
Text: (§1) The Yac-1 represents a standard target for natural killer (NK) cells.

CTL precursors = assay: MLC activated anti-H-2 specific CTL from spleen cells; assay type: in vivo, murine; conditions: spleen cells of saline injected mice treated with 250 μM Leu-Leu-Ome
Text: as §1
Unlike control cells, spleen cells in which DPPI activity was inhibited were resistant to any discernible toxic effects of Leu--Leu--OMe on NK function of the capacity to generate anti-H-2^d specific CTL.

[1] = test system: BLT esterase (granzyme A); assay: BLT esterase activity in IL2 activated human PBL; assay type: cell-based; conditions: IL2 activated Leu--Leu--OMe treated PBL
Text: The cells were then harvested, disrupted in a dounce homogenizer, the nuclei pelleted and residual intact cells removed by centrifugation and the granule fraction localized on discontinuous Percoll gradients. […] Thus, Leu--Leu--OMe sensitive, DPPI enriched cells are the source of BLT esterase in such IL2 activated cultures.

[2] = molecular target: T1, BLT esterase (granzyme A) (Mus musculus, UniProt P11032); assay: BLT esterase activity in granule fractions of control CD8(+) CTL, in vitro incubation with inhibitor; assay type: biochemical, murine; conditions: in vitro incubation with 1 mM
T1 construct: endogenous in cells; host or cells: alloreactive murine CD8(+) T cells, whole cells or Percoll granule fractions
T1 sequence (P11032 29-260): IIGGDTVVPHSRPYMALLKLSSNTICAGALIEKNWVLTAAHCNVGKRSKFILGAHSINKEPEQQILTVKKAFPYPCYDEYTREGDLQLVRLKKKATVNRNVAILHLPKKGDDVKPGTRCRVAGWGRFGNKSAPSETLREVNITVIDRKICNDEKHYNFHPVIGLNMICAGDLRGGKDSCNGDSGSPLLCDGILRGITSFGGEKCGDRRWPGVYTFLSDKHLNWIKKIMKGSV
Procedure: 193, Academic Press, New York).
Cells were incubated for 5 minutes on ice in hypotonic homogenization buffer (0.1× PBS salts, 1 mM MgCl2). The cells were disrupted with a glass pestle homogenizer and isotonic conditions restored by the addition of 10× PBS salts. The homogenates were cleared of cell debris and intact cells by centrifugation at 600 xg for 2 minutes. The soluble extracts were layered on discontinuous Percoll gradients (6 ml 39%, 6 ml 90% Percoll) and centrifuged .for one hour at 17,000 xg. The gradients were fractionated by removing 1 ml aliquots from the top.
Alloreactive CD8(+) T-cells were homogenized and fractionated on discontinuous Percoll gradients.

[3] = molecular target: human dipeptidyl peptidase-I (Homo sapiens, UniProt P53634); assay: Effect of protease inhibitors on DPPI activity (purified enzyme); assay type: biochemical; set-up: Human DPPI is now established to constitute a 200,000 Da glycoprotein with 24,000 Da subunits; from tissue; host or cells: human cadaveric spleen; conditions: screening conditions pH 5.5
Procedure: Note. Purified human dipeptidyl peptidaseI (0.4 μg) was preincubated
with each of the inhibitors at the stated concentration for 15 min at
37° C.. Each sample was diluted 3fold with assay buffer containing
substrate and incubated for an additional 20 min.

DPPI = DPPI (Homo sapiens, UniProt P53634); conditions: cited from earlier work
[4] = molecular target: human leukocyte elastase proenzyme (human) (UniProt P08246)
[5] = molecular target: human granzyme A proenzyme (human) (UniProt P12544)
[6] = molecular target: propeptide-bearing form of human cathepsin G (human) (UniProt P08311)

BLT esterase activity [1]: could not be detected
Compound: COC(=O)[C@H](CC(C)C)NC(=O)[C@@H](N)CC(C)C [Leu--Leu--OMe]
NK Function % Specific Lysis Yac-1 (NK cells (Yac-1 targets); 20:1): < 1 % Specific Lysis | NK Function % Specific Lysis Yac-1 (NK cells (Yac-1 targets); 80:1): < 1 % Specific Lysis | MLC Activated Anti-H-2° Spec. CTL (CTL precursors; 20:1): 1 | MLC Activated Anti-H-2° Spec. CTL (CTL precursors; 80:1): 3

Compound: O=S(=O)(F)Cc1ccccc1 [PMSF, phenylmethylsulfonylfluoride]
BLT esterase activity in granule fractions inhibited [2]: > 95% | effect on DPPI activity (in words) [3]: no effect

Compound: [N-]=[N+]=CC(=O)C(Cc1ccccc1)NC(=O)CNC(=O)C(Cc1ccccc1)NC(=O)OCc1ccccc1 (stereo not drawn) [Z--Phe--Gly--Phe--CHN2] (Cbz-Phe-Gly-Phe-CHN2; configuration not given here)
less reactive with DPPI than Gly--Phe--CHN2 (DPPI): 3 orders of magnitude

hydrolysis of synthetic peptide substrate by purified human DPPI (values at 100 µM and 500 µM substrate; value given is at 500 µM) (Ala-Ala-Val-Ala-pNA): 120 not printed | hydrolysis of synthetic peptide substrate by purified human DPPI (values at 100 µM and 500 µM substrate; value given is at 500 µM) (Ala-Ala-pNA): 1000 not printed | hydrolysis of synthetic peptide substrate by purified human DPPI (values at 100 µM and 500 µM substrate; value given is at 500 µM) (Arg-Arg-βNA): 0 not printed | hydrolysis of synthetic peptide substrate by purified human DPPI (values at 100 µM and 500 µM substrate; value given is at 500 µM) (Asp-Ala-βNA): 1000 not printed | hydrolysis of synthetic peptide substrate by purified human DPPI (values at 100 µM and 500 µM substrate; value given is at 500 µM) (CBZ-Arg-Arg-βNA): 0 not printed | hydrolysis of synthetic peptide substrate by purified human DPPI (values at 100 µM and 500 µM substrate; value given is at 500 µM) (CBZ-Gly-Pro-Arg-AMC): 0 not printed | hydrolysis of synthetic peptide substrate by purified human DPPI (values at 100 µM and 500 µM substrate; value given is at 500 µM) (CBZ-Val-Leu-Arg-MNA): 0 not printed | hydrolysis of synthetic peptide substrate by purified human DPPI (values at 100 µM and 500 µM substrate; value given is at 500 µM) (Gly-Arg-MNA): 4750 not printed | hydrolysis of synthetic peptide substrate by purified human DPPI (values at 100 µM and 500 µM substrate; value given is at 500 µM) (Gly-Phe-AMC): 6120 not printed | hydrolysis of synthetic peptide substrate by purified human DPPI (values at 100 µM and 500 µM substrate; value given is at 500 µM) (Gly-Phe-MNA): 5750 not printed | hydrolysis of synthetic peptide substrate by purified human DPPI (values at 100 µM and 500 µM substrate; value given is at 500 µM) (Gly-Phe-pNA): 380 not printed | hydrolysis of synthetic peptide substrate by purified human DPPI (values at 100 µM and 500 µM substrate; value given is at 500 µM) (Gly-Phe-βNA): 4380 not printed | hydrolysis of synthetic peptide substrate by purified human DPPI (values at 100 µM and 500 µM substrate; value given is at 500 µM) (Gly-Pro-MNA): 0 not printed | hydrolysis of synthetic peptide substrate by purified human DPPI (values at 100 µM and 500 µM substrate; value given is at 500 µM) (Gly-Pro-βNA): 0 not printed | hydrolysis of synthetic peptide substrate by purified human DPPI (values at 100 µM and 500 µM substrate; value given is at 500 µM) (Pro-Phe-Arg-AMC): 0 not printed | hydrolysis of synthetic peptide substrate by purified human DPPI (values at 100 µM and 500 µM substrate; value given is at 500 µM) (Ser-Tyr-MNA): 1750 not printed | hydrolysis of synthetic peptide substrate by purified human DPPI (values at 100 µM and 500 µM substrate; value given is at 500 µM) (Ser-Tyr-βNA): 2000 not printed | hydrolysis of synthetic peptide substrate by purified human DPPI (values at 100 µM and 500 µM substrate; value given is at 500 µM) (Suc-Ala-Ala-Ala-pNA): 0 not printed | hydrolysis of synthetic peptide substrate by purified human DPPI (values at 100 µM and 500 µM substrate; value given is at 500 µM) (Suc-Ala-Ala-Pro-Phe-pNA): 0 not printed | generation of elastase activity in U-937 cells with endogenous DPPI inhibited for 48 hours [4]: 65 % decrease | generation of granzyme A (BLT esterase) activity in human LAK cells with endogenous DPPI inhibited [5]: < 90 % reduction | processing of newly synthesized cathepsin G to the active form in U-937 cells with endogenous DPPI inhibited (3H-Ile pulse-chase, aprotinin-agarose, radiosequencing) [6]: < 10 % of control
Compound: human dipeptidyl peptidase-I (from UniProt P53634) (enzyme)
